This test has as its target biotinylated PSD95 (PDZ domains 1-3, residues 1-435 of human PSD95, fused to a biotin acceptor peptide) (human, UniProt P78352 1-435, biotin at its internal biotin acceptor site).

Chain of biotinylated PSD95 (PDZ domains 1-3, residues 1-435 of human PSD95, fused to a biotin acceptor peptide) (P78352 1-435): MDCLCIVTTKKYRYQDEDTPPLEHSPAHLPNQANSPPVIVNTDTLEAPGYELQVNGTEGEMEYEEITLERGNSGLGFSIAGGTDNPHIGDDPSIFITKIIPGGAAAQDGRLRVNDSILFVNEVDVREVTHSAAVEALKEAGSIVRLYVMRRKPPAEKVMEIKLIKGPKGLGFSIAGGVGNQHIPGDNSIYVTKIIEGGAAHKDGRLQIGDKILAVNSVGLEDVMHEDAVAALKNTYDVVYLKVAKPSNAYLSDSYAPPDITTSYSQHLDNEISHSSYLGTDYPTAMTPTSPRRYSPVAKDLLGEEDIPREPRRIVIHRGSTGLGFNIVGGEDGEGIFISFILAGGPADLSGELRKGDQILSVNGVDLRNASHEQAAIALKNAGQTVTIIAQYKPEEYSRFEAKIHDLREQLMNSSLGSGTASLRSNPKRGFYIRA

B1: Tat-nNOS (1-299) fusion protein (other)
chain: YGRKKRRQRRRMEDHMFGVQQIQPNVISVRLFKRKVGGLGFLVKERVSKPPVIISDLIRGGAAEQSGLIQAGDIILAVNGRPLVDLSYDSALEVLRGIASETHVVLILRGPEGFTTHLETTFTGDGTPKTIRVTQPLGPPTKAVDLSHQPPAGKEQPLAVDGASGPGNGPQHAYDDGQEAGSLPHANGLAPRPPGQDPAKKATRVSLQGRGENNELLKEIEPVLSLLTSGSRGVKGGAPAKAEMKDMGIQVDRDLDGKSHKPLPLGVENDRVFNDLWGKGNVPVVLNNPYSEKEQPPTSGKQSPTKNGSP
For the molecule B1, the IC50 – broadly, the point on the concentration scale where inhibition reaches its midpoint – came to 300 nM.

The record behind these values is patent US20150105324A1 (INDIANA UNIVERSITY RESEARCH AND TECHNOLOGY, published 2015).
